Measured values as given in patent publication US20110190477A1 (G2 INFLAMMATION, published 2011).

What was measured:
Experiment in all cases: flow cytometry on transiently transfected L1.2 cells
[1] = target: T1, chimeric receptor 6. HmHH (human; mouse, UniProt P30993 93-111)
T1 construct: range 93-111; Transiently expressed on mouse L1.2 cells
T1 sequence: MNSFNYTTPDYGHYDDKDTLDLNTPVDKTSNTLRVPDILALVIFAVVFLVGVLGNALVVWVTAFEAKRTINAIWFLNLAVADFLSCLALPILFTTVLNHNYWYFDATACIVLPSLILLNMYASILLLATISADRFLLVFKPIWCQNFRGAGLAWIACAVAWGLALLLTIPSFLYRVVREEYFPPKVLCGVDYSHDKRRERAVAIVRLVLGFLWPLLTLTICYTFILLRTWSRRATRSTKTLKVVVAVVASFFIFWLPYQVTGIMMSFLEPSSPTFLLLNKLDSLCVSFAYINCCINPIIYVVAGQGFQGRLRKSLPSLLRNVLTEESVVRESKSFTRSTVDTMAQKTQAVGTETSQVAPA
Protocol: (§1) A series of chimeric receptors comprising segments of mouse and human C5aR were constructed to identify the region of the C5a receptor that the antibodies bound. […] Each recombinant vector (5 μg diluted in DMEM) encoding a different chimeric receptor was transfected into 5×10⁵ mouse L1.2 cells using Lipofectamine 2000 (Invitrogen). Cells were grown in DMEM or RPMI (Invitrogen) plus 10% foetal bovine serum (Hyclone). After 24 hours or 48 hours, cells were harvested by centrifugation at 1,500 rpm for 5 min and resuspended in FACS buffer (phosphate buffered saline plus 2% bovine serum albumin). For staining with hAb-Q, 0.5×10⁵ transfected cells were incubated with 5 or 10 μg/ml antibody in a volume of 50 μl per well at 4° C. for 20 minutes. Cells were pelleted as above and rinsed 3 times with 150 μl FACS buffer before addition of 50 μl FITC-conjugated anti-human IgG diluted 1:200 or 1:300 (Sigma, F1641). This mix was incubated for 20 min at 4° C. before cells were pelleted, washed with FACS buffer 3 times and finally resuspended in 150-200 μl FACS buffer. Samples were analysed on a FACS Calibur (BD Biosciences).
(§2) To confirm that the humanised antibody hAb-Q, which was derived from mouse mAb 7F3 by CDR grafting, and therefore should contain the same antigen-binding site, had the same staining pattern as 7F3, transiently transfected cells expressing the different chimeric human/mouse C5aR were stained with hAb-Q and analysed by flow cytometry. The pattern of staining by hAb-Q was identical to that observed with 7F3. There was no staining by the secondary antibody (anti-hIgG-FITC) alone.

[2] = target: T2, chimeric receptor 8. HHHm (human; mouse, UniProt P30993 264-283, limits assumed)
T2 construct: Transiently expressed on mouse L1.2 cells
T2 sequence: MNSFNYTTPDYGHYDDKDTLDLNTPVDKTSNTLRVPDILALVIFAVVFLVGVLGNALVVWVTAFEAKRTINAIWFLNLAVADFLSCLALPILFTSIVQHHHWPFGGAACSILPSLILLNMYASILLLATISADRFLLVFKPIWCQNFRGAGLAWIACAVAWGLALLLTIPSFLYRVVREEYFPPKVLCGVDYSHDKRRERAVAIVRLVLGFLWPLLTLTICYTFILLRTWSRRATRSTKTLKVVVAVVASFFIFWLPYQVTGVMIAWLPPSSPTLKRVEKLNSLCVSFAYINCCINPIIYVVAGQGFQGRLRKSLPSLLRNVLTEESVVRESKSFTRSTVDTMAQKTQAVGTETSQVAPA
Protocol: as §1, §2

[3] = target: T3, chimeric receptor 1. HHHH (human, UniProt P21730 1-350)
T3 construct: Transiently expressed on mouse L1.2 cells
T3 chain: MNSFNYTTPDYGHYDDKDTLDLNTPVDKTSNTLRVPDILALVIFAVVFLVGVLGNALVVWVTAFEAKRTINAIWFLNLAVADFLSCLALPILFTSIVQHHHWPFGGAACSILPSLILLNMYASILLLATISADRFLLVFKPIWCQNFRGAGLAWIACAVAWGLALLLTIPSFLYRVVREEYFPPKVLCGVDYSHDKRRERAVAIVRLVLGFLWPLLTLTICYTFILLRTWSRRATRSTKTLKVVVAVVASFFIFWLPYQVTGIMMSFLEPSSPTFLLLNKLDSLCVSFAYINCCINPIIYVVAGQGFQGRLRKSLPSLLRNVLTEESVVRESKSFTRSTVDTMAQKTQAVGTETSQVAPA
Protocol: as §1, §2

[4] = target: T4, chimeric receptor 3. mmHH (mouse; human, UniProt P30993 1-111)
T4 construct: range 1-111; Transiently expressed on mouse L1.2 cells
T4 sequence: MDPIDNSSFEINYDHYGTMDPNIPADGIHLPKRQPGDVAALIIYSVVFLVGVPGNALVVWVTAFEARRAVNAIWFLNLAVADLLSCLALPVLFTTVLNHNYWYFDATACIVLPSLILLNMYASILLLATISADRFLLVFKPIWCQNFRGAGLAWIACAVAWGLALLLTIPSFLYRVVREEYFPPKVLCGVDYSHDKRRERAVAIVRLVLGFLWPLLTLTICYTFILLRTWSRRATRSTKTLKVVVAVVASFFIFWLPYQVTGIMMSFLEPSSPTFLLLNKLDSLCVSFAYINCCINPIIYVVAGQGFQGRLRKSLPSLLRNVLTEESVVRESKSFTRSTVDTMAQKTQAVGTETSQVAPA
Protocol: as §1, §2

[5] = target: T5, chimeric receptor 11. mmHm (mouse; human, UniProt P30993 1-111; P30993 264-351, limits assumed)
T5 construct: Transiently expressed on mouse L1.2 cells
T5 sequence: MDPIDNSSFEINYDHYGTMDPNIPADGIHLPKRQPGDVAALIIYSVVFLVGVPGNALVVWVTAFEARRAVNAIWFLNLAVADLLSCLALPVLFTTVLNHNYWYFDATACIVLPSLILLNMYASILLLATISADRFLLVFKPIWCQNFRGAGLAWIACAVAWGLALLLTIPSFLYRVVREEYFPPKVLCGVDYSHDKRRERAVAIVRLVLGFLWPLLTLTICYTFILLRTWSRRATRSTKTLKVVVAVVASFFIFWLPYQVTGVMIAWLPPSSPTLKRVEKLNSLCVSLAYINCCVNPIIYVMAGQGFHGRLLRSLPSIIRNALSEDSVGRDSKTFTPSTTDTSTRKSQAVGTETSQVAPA
Protocol: as §1, §2

Measured: binding result

B1: humanized anti-C5aR antibody hAb-Q (antibody, human IgG4 S228P, kappa)
light: DVVMTQSPLSLPVTLGEPASISCRSSQSLVHSNGNTYLHWYLQKPGQSPQLLIYKVSNRFSGVPDRFSGSGSGTDFTLKISRVEAEDVGVYFCSQSTLVPLTFGQGTKLEIKRTVAAPSVFIFPPSDEQLKSGTASVVCLLNNFYPREAKVQWKVDNALQSGNSQESVTEQDSKDSTYSLSSTLTLSKADYEKHKVYACEVTHQGLSSPVTKSFNRGEC
heavy: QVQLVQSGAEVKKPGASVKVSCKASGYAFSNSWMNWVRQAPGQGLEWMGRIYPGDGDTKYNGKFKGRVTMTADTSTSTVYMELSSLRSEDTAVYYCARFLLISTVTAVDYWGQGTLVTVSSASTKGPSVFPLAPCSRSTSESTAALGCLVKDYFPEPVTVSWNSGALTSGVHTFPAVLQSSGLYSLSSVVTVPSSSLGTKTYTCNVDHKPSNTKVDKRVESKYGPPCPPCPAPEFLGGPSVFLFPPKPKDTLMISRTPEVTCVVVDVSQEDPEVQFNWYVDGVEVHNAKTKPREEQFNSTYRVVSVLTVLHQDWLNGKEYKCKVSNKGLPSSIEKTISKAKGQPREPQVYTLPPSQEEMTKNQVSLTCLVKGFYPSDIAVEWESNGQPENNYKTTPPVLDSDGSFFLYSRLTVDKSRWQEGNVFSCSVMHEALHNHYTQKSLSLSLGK
notes: IgG4 with the Ser228Pro mutation; also called antibody Q; anti-C5aR ab
binds: all assays above
